Source: article PMC6873191

Legend:
[1] = molecular target: full-length ClpC fused to the T25 fragment of B. pertussis adenylate cyclase (UniProt P37571); test: bacterial two-hybrid interaction assay (β-gal readout); conditions: E. coli Δcya strain DHM1, Gp53 fused to T18, ClpC fused to T25, n = 3; for response: parent: est. 21000, read off a plot; for percent of parent: parent: 100
[2] = molecular target: C-terminal FLAG-tagged ClpC (B. subtilis) (UniProt P37571)
[3] = molecular target: full-length ClpC fused to the T25 fragment of B. pertussis adenylate cyclase (B. subtilis) (UniProt P37571); test: two-hybrid; modified bacterial two-hybrid: MecA-T18 and ClpC-T25 in E. coli DHM1 that holds a plasmid with Gp53 under the L-arabinose-inducible araB promoter; β-gal activity with and without L-arabinose

Row | Substance | response [1] [Miller Units] | percent of parent [1] [%] | further results
1 | Gp53 (WT) fused to a fragment of B. pertussis adenylate cyclase for the bacterial two-hybrid assay R94A | 21000 | – | –
2 | N-terminal His6-tagged Gp53 of phage SPO1 (natural protein) | – | – | β-casein (3 μM) left intact after 90 min of in vitro degradation by ClpCP with MecA, with Gp53 against without Gp53 [2]: 10 fold
3 | Gp53 (WT) fused to a fragment of B. pertussis adenylate cyclase for the bacterial two-hybrid assay K101A | 22000 | – | –
4 | Gp53 (WT) fused to a fragment of B. pertussis adenylate cyclase for the bacterial two-hybrid assay L95A | 10000 | 48 | –
5 | Gp53 (WT) fused to a fragment of B. pertussis adenylate cyclase for the bacterial two-hybrid assay V87A | 9300 | 44 | –
6 | Gp53 (WT) fused to a fragment of B. pertussis adenylate cyclase for the bacterial two-hybrid assay K101E | 23000 | – | –
7 | Gp53 (WT) fused to a fragment of B. pertussis adenylate cyclase for the bacterial two-hybrid assay L83A | 20000 | – | –
8 | Gp53 (WT) fused to a fragment of B. pertussis adenylate cyclase for the bacterial two-hybrid assay R94E | 7700 | 37 | –
9 | Gp53 expressed from pSCBAD-Gp53 under the L-arabinose-inducible araB promoter (natural protein) | – | – | fold reduction of the β-gal activity of MecA-ClpC on induction of Gp53 [3]: 3 fold
